Columns and labels:
KDR receptor = KDR receptor (Homo sapiens, UniProt P35968); assay: KDR receptor binding ELISA (inhibition of biotinylated native VEGF (8-109) binding); conditions: second figure of the cell, ratio to native VEGF (8-109)
Method: Receptor binding assays were performed in 96-well immunoplates (Maxisorp, Nunc-Immunoplate, Nalge Nunc International, Rochester, N.Y.). Each well was coated with 100 μl of a solution containing 8 μg/ml of a monoclonal antibody to KDR known as MAKD5 (Genentech, South San Francisco, Calif.) in 50 mM carbonate buffer at pH 9.6 and incubated at 4° C. overnight. The supernatant was discarded, the wells were washed three times in washing buffer (0.05% Tween 20 in PBS), and the plate was blocked (150 μl per well) with block buffer (0.5% BSA, 0.01% thimerosal in PBS) at room temperature for one hour. The supernatant was discarded, and the wells were washed.
(§1) Aliquots of this mixture (100 μl) were added to the precoated microtiter wells and the plate was incubated for 1 hour at room temperature. […] The wells were then incubated with 3, 3′, 5,5′-tetramethyl benzidine (0.2 gram/liter; Kirkegaard & Perry Laboratories, Gaithersburg, Md.) for about 10 minutes at room temperature. Absorbance was read at 450 nm on a Vmax plate reader (Molecular Devices, Menlo Park, Calif.).
(§2) Titration curves were fit with a four-parameter nonlinear regression curve-fitting program (KaleidaGraph, Synergy Software, Reading, Pa.).

Flt-1 receptor = Flt-1 receptor binding ELISA (inhibition of biotinylated native VEGF binding to Flt-IgG); conditions: second figure of the cell, ratio to native VEGF (8-109)
Method: Receptor binding assays were performed in 96-well immunoplates (Maxisorp, Nunc-Immunoplate, Nalge Nunc International, Rochester, N.Y.). Each well was coated with 100 μl of a solution containing 2 μg/ml of rabbit F(ab′)2 to human IgG Fc (Jackson ImmunoResearch, West Grove, Pa.) in 50 mM carbonate buffer at pH 9.6 and incubated at 4° C. overnight. The supernatant was then discarded, the wells were washed three times in washing buffer (0.05% Tween 20 in PBS), and the plate was blocked (150 μl per well) with block buffer (0.5% BSA, 0.01% thimerosal in PBS) at room temperature for one hour. The supernatant was discarded, and the wells were washed.
The wells were filled with 100 μl of a solution containing Flt-IgG (a chimeric Flt-human Fc molecule) at 50 ng/ml in assay buffer (0.5% BSA, 0.05% Tween 20 in PBS). The wells were incubated at room temperature for 1 hour and then washed three times in wash buffer (0.05% Tween 20 in PBS).
as §1, with “the” for “this”, “2 hours” for “1 hour”, “g/liter,” for “gram/liter;”
as §2

Chain of Flt-1 receptor (P17948 27-327 limits assumed): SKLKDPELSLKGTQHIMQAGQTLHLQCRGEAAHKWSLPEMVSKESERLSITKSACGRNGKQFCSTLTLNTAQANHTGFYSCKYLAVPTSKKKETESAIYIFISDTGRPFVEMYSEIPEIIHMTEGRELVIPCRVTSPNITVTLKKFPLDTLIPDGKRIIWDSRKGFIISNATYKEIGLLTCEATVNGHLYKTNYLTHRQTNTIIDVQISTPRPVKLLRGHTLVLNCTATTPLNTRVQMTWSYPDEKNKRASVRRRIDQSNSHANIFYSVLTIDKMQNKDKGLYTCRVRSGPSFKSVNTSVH
Chain of KDR receptor (P35968 20-327 limits assumed): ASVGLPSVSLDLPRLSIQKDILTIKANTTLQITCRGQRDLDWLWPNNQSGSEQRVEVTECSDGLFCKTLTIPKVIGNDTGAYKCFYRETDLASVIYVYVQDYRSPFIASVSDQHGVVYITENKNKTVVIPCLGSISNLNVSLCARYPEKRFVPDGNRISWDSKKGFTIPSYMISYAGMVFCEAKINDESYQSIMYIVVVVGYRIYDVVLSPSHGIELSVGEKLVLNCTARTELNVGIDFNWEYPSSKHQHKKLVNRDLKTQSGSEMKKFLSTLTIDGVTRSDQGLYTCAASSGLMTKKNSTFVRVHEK

Molecule	Relative Binding Affinity KDR Receptor (KDR receptor)	Relative Binding Affinity FLT-1 Receptor (Flt-1 receptor)
LK-VRB-4s: VEGF (1-109) variant, F17I/M18E/Y21F/Q22E/Y25I (protein) APMAEGGGQNHHEVVKIEDVFERSICHPIETLVDIFQEYPDEIEYIFKPSCVPLMRCGGCCNDEGLECVPTEESNITMQIMRIKPHQGQHIGEMSFLQHNKCECRPKKD	1 nM/1	–
LK-VRB-20s: VEGF (1-109) variant, Y21L/Q22R/Y25S/D63S/G65M/L66R (protein) APMAEGGGQNHHEVVKFMDVLRRSSCHPIETLVDIFQEYPDEIEYIFKPSCVPLMRCGGCCNSEMRECVPTEESNITMQIMRIKPHQGQHIGEMSFLQHNKCECRPKKD	2 nM/2	/>10000
LK-VRB-19s: VEGF (1-109) variant, M18E/Q22R/Y25S/D63S/G65M/L66R as printed (same as 18s) (protein) APMAEGGGQNHHEVVKFEDVYRRSSCHPIETLVDIFQEYPDEIEYIFKPSCVPLMRCGGCCNSEMRECVPTEESNITMQIMRIKPHQGQHIGEMSFLQHNKCECRPKKD	7 nM/7	/>35000
LK-VRB-12s: VEGF (1-109) variant, M18E/Q22R/D63S/G65M/L66R (protein) APMAEGGGQNHHEVVKFEDVYRRSYCHPIETLVDIFQEYPDEIEYIFKPSCVPLMRCGGCCNSEMRECVPTEESNITMQIMRIKPHQGQHIGEMSFLQHNKCECRPKKD	0.4 nM/0.4	/>5600
LK-VRB-7s*: VEGF (1-109) variant, M18E/D63S/G65M/L66R (protein) APMAEGGGQNHHEVVKFEDVYQRSYCHPIETLVDIFQEYPDEIEYIFKPSCVPLMRCGGCCNSEMRECVPTEESNITMQIMRIKPHQGQHIGEMSFLQHNKCECRPKKD	1 nM/1	/>15000
LK-VRB-3s: VEGF (1-109) variant, F17I/M18E/Y21F/Q22K/Y25S (protein) APMAEGGGQNHHEVVKIEDVFKRSSCHPIETLVDIFQEYPDEIEYIFKPSCVPLMRCGGCCNDEGLECVPTEESNITMQIMRIKPHQGQHIGEMSFLQHNKCECRPKKD	1 nM/1	–
LK-VRB-23s: VEGF (1-109) variant, L66R/M185/Y21L/Q22R/Y25S as printed (protein) APMAEGGGQNHHEVVKFEDVLRRSSCHPIETLVDIFQEYPDEIEYIFKPSCVPLMRCGGCCNDEGRECVPTEESNITMQIMRIKPHQGQHIGEMSFLQHNKCECRPKKD	11 nM/11	/>8500
LK-VRB-24s: VEGF (1-109) variant, D63S/G65M/M18E/Y21L/Q22R/Y25S (protein) APMAEGGGQNHHEVVKFEDVLRRSSCHPIETLVDIFQEYPDEIEYIFKPSCVPLMRCGGCCNSEMLECVPTEESNITMQIMRIKPHQGQHIGEMSFLQHNKCECRPKKD	10 nM/10	/>18000
LK-VRB-13s: VEGF (1-109) variant, M18E/Y25S/D63S/G65M/L66R (protein) APMAEGGGQNHHEVVKFEDVYQRSSCHPIETLVDIFQEYPDEIEYIFKPSCVPLMRCGGCCNSEMRECVPTEESNITMQIMRIKPHQGQHIGEMSFLQHNKCECRPKKD	14 nM/14	/>14000
LK-VRB-22s: VEGF (1-109) variant, GG5M/M18E/Y21L/Q22R/Y25S as printed (protein) APMAEGGGQNHHEVVKFEDVLRRSSCHPIETLVDIFQEYPDEIEYIFKPSCVPLMRCGGCCNDEMLECVPTEESNITMQIMRIKPHQGQHIGEMSFLQHNKCECRPKKD	4 nM/4	/>30
LK-VRB-8s*: VEGF (1-109) variant, Y2IL/D63S/G65M/LG6R as printed (protein) APMAEGGGQNHHEVVKFMDVLQRSYCHPIETLVDIFQEYPDEIEYIFKPSCVPLMRCGGCCNSEMRECVPTEESNITMQIMRIKPHQGQHIGEMSFLQHNKCECRPKKD	0.5 nM/0.5	/>21000

Other lines, results leading:

Relative Binding Affinity KDR Receptor (KDR receptor)	Relative Binding Affinity FLT-1 Receptor (Flt-1 receptor)	Molecule
0.5 nM/0.5	/>2900	LK-VRB-14s: VEGF (1-109) variant, Y21L/Q22R/D63S/G65M/L66R (protein) APMAEGGGQNHHEVVKFMDVLRRSYCHPIETLVDIFQEYPDEIEYIFKPSCVPLMRCGGCCNSEMRECVPTEESNITMQIMRIKPHQGQHIGEMSFLQHNKCECRPKKD
3 nM/3	/>5600	LK-VRB-21s: VEGF (1-109) variant, D63S/M18E/Y21L/Q22R/Y25S (protein) APMAEGGGQNHHEVVKFEDVLRRSSCHPIETLVDIFQEYPDEIEYIFKPSCVPLMRCGGCCNSEGLECVPTEESNITMQIMRIKPHQGQHIGEMSFLQHNKCECRPKKD
2 nM/2	/>21000	LK-VRB-15s: VEGF (1-109) variant, Y21L/Y25S/D63S/G65M/L66R (protein) APMAEGGGQNHHEVVKFMDVLQRSSCHPIETLVDIFQEYPDEIEYIFKPSCVPLMRCGGCCNSEMRECVPTEESNITMQIMRIKPHQGQHIGEMSFLQHNKCECRPKKD
2 nM/2	/>14000	LK-VRB-11s: VEGF (1-109) variant, M18E/Y21L/D63S/G65M/L66R (protein) APMAEGGGQNHHEVVKFEDVLQRSYCHPIETLVDIFQEYPDEIEYIFKPSCVPLMRCGGCCNSEMRECVPTEESNITMQIMRIKPHQGQHIGEMSFLQHNKCECRPKKD
0.5 nM/0.5	/>2400	LK-VRB-10s: VEGF (1-109) variant, Y25S/D63S/G65M/L66R (protein) APMAEGGGQNHHEVVKFMDVYQRSSCHPIETLVDIFQEYPDEIEYIFKPSCVPLMRCGGCCNSEMRECVPTEESNITMQIMRIKPHQGQHIGEMSFLQHNKCECRPKKD
3 nM/3	/>1900	LK-VRB-17s: VEGF (1-109) variant, M18E/Y21L/Q22R/D63S/G65M/L66R (protein) APMAEGGGQNHHEVVKFEDVLRRSYCHPIETLVDIFQEYPDEIEYIFKPSCVPLMRCGGCCNSEMRECVPTEESNITMQIMRIKPHQGQHIGEMSFLQHNKCECRPKKD
0.6 nM/0.6	/>1400	LK-VRB-16s: VEGF (1-109) variant, Q22R/Y25S/D63S/G65M/L66R (protein) APMAEGGGQNHHEVVKFMDVYRRSSCHPIETLVDIFQEYPDEIEYIFKPSCVPLMRCGGCCNSEMRECVPTEESNITMQIMRIKPHQGQHIGEMSFLQHNKCECRPKKD
0.5 nM/0.5	/300	LK-VRB-9s: VEGF (1-109) variant, Q22R/D63S/G65M/L66R (protein) APMAEGGGQNHHEVVKFMDVYRRSYCHPIETLVDIFQEYPDEIEYIFKPSCVPLMRCGGCCNSEMRECVPTEESNITMQIMRIKPHQGQHIGEMSFLQHNKCECRPKKD
